Measured values reported in the nanobody polyreactivity screen of Harvey et al. (2022).

Experiment: yeast display, Sf9 membrane polyspecificity reagent, FACS + sequencing; frameworks hold sequencing errors
Outline: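 Polyreactivity labels are assigned by the sorting gate from which each nanobody was recovered. The gates were low and high (top ~1%), set on anti-HA fluorescence for expression and streptavidin fluorescence for reagent binding. Before sorting, galactose-induced (36–48 hours) yeast display cells were stained for 1 hour at 4 °C with 10% biotinylated, detergent-solubilized Sf9 membrane reagent.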

| Sequence | polyreactivity (PSR sort gate) |
| --- | --- |
| QVQLVESGGGLVQAGGSLRLSCAASGRIFKGNGMGWYRQAPGKERELVAAISSGGTYYADSVKGRFTISRDNAKNTVYLQMNSLKPEDTAVYYCAAQHRGVQVTFGEYDYWGQGTQVTVSS | low polyreactivity |
| QVQLVESGGGLVQAGGSLRLSCAASGRIFKGYAMGWYRQAPGKERELVAAITISGGSTYYADSVKGRFTISRDNAKNTVYLQMNSLKPEDTAVYYCAARKFVYWYGMEYWGQGSQVTVSS | low polyreactivity |
| QVQLVESGGGLVQAGGSLRLSCAASGRIFKNYAMGWYRQAPGKERELVAAISWSGGRTYYADSVKGRFTISRDYAKNTVYLQMNSLKPEDTAVYYCASAARRGPTSIEPFGYGSWGQGTQVTVSS | high polyreactivity |
| QVQLVESGGGLVQAGGSLRLSCAASGRIFKPYALGWYRPAPGKERELVAALSWTGGRTRYADSVKGRFTISRDNAMNTVYLQMNSLKPEDTAVYYCAAYAIVRSYFIYDYWGQGTQVTVSS | high polyreactivity |
| QVQLVESGGGLVQAGGSLRLSCAASGRIFKRNAMGWYRQAPGKERELVAAISYSGGSTYYADSVKGRFTISRDNAKNTVYLQMNSLKPEDTAVYYCAAKYRPRGKSSWPYRRYDYWGQGTQVTVSS | high polyreactivity |
| QVQLVESGGGLVQAGGSLRLSCAASGRIFKRNTLGWYRQAPGKERELVAAITNSGITYYADSVKGRFTISRDNAKNTVYLQMNSLKPEDTAVYYCAARVIYYYGSGPYDYWGQGTQVTVSS | low polyreactivity |
| QVQLVESGGGLVQAGGSLRLSCAASGRIFKRNVMGWYRQAPGKERELVAAITLRGGSTYYADSVKGRFTISRDNAKNTVYLQMNSLKPEDTAVYYCAAVQGTYYWDDYWGQGTQVTVSS | low polyreactivity |
| QVQLVESGGGLVQAGGSLRLSCAASGRIFKRYVMGWYRQAPGKERELVAAISVRGASTYYADSVKGRFTISRDNAKNTVSLQMNSLKPEDTAVYYCATAGYRLLDYWGQGTQVTVSS | high polyreactivity |
| QVQLVESGGGLVQAGGSLRLSCAASGRIFKSNAMGWYRQAPGKERELVASISRSGSTNYADSVKGRFTLSRDNAKNTVYLQMNSLKPEDTAVYYCAKDPDAKGGGYDYWGQGTQVTVSS | low polyreactivity |
| QVQLVESGGGLVQAGGSLRLSCAASGRIFKSYAMGWYRQAPGKERELVAIIRSSGTTYYADSVKGRFTISRDNAKNTVYLQMNSLKPEDTAVYYCNADGYPLGDKYDYWGQGTQVTVSS | high polyreactivity |
| QVQLVESGGGLVQAGGSLRLSCAASGRIFKSYAMGWYRQAPGKERELVATISISGGSTYYADSVKGRFTISRDNAKNTVYLQMNSLKPEDTAVYYCAADRYGLGDYDYWGQGTQVTVSS | low polyreactivity |
| QVQLVESGGGLVQAGGSLRLSCAASGRIFKSYVMGWYRQAPGKERELVAAISITGGSTYYADSVKGRFTISRDNAKNTVYLQMNSLKPEDTAVYYCAAGRSGQEDDYWGQGTQVTVSS | high polyreactivity |
| QVQLVESGGGLVQAGGSLRLSCAASGRIFKTNAMGWYRQAPGKERELVAAITWSGTSTYYADSVKWRYTISRDNEKITVYLQMNSLKPEDTAVYYCDAKQYARKYGFWGQGTQVTVSS | high polyreactivity |
| QVQLVESGGGLVQAGGSLRLSCAASGRIFKVNTMGWYRQAPGKERELVASIRGGGSTNYADSVKGRFTISRDNAKNTVFLQMNSLKPEDTAVYYCAVGPNSVGNRSYGFDYWGQGTQVTVSS | low polyreactivity |
| QVQLVESGGGLVQAGGSLRLSCAASGRIFKVNTMGWYRQAPGKERELVASIRGGGSTNYADSVKGRFTISRDNAKNTVYLQMNSLKPEDTAVYYCAAGTSKPTPIYGYWGQGTQVTVSS | low polyreactivity |
| QVQLVESGGGLVQAGGSLRLSCAASGRIFKVYAMGWYRQAPGKERELVAAINWSTGSTYYADSVKGRFTISRDNAKNTVYLQMNSLKPEDTAVYYCAAKNLYSYDWGQGTQVTVSS | high polyreactivity |
| QVQLVESGGGLVQAGGSLRLSCAASGRIFKVYAMGWYRQAPGKERELVASIRWNTGSTYYADSVKGRFTISRDNAKNSVYLQMNSLKPEDTAVYYCAATDWWGYYYWGQGTQVTVSS | high polyreactivity |
| QVQLVESGGGLVQAGGSLRLSCAASGRIFKWYAMGWSRQAPGKERELVAAITSGGSTYYADSVKGRFTISRDNAKNTVYVQMNSLKPEDTAVYYCNRYGVHRRDDYWGQGTQVTVSS | high polyreactivity |
| QVQLVESGGGLVQAGGSLRLSCAASGRIFKWYAMGWYRQAPGKEREFVAAINWNGDSTHYADSVKGRFTISRDNAKNTVYLQMNSLKPEDTAVYYCNARVFVTRSYYWGQGTQVTVSS | low polyreactivity |
| QVQLVESGGGLVQAGGSLRLSCAASGRIFKYNAMGWYRPAPGKERELVAAISGTGGSTYYADSVKGRFTISRDNAKNTVYLQMNSLKPEDTAVYYCNRRYYGHSTWKYDYWGQGTQVTVSS | high polyreactivity |
| QVQLVESGGGLVQAGGSLRLSCAASGRIFKYYAMGWYRQAPGKERELVAAISARGGSTYYADSVKGRFTISRDNAKNTVYFQMNSLKPEDTAVYYCAAPYLTTQYERMYYWGQGTQVTVSS | high polyreactivity |
| QVQLVESGGGLVQAGGSLRLSCAASGRIFKYYAMGWYRQAPGKERELVAAISASGGSTYYADSVKGRFTISRDNAKNTVYLQMNSLKPEDTAVYYCAAATRRKRIWTATTRSEYWGQGTQVTVSS | high polyreactivity |

| Sequence | polyreactivity (PSR sort gate) |
| --- | --- |
| QVQLVESGGGLVQAGGSLRLSCAASGRIFKYYTMGWYRQAPGKERELVAAISRDDSTNYADSVKGRFTISRDNAKNTVYLQMNSLKPEDTAVYYCAKGYHQYAGFYYWGQGTQVTVSS | high polyreactivity |
| QVQLVESGGGLVQAGGSLRLSCAASGRIFKYYVMGWYRQPPGKERELVAGISSSGGSTYYADSVKGRFTISRDNAKNTVYLQMNSLKPEDTAVYYCAADYTFAYYNVKMDYWGQGTQVTVSS | low polyreactivity |
| QVQLVESGGGLVQAGGSLRLSCAASGRIFLFYAMGWYRQAPGKESELVAAISVRGGSTYYADSVKGRFTISRDNAKNTVYLQMNSLKPEDTAVYYCAADYPKTYTSKFNYWGQVTQVTVSS | high polyreactivity |
| QVQLVESGGGLVQAGGSLRLSCAASGRIFLGYAMGWYRQAPGKERELVARITLIGGGTNYADSVKGRFTISRDNAKNTVYLQMNSLKPEDTAVYYCAAKSPLRPWWVGAVSGNYWGQGTQVTVSS | low polyreactivity |
| QVQLVESGGGLVQAGGSLRLSCAASGRIFLGYAMGWYRQAPGKERELVATITWNSDGTYYADSVKGRFTISRDNAKNTVYLQMNSLKPEDTAVYYCATDEGWPWYYYWGQGTQVTVSS | low polyreactivity |
| QVQLVESGGGLVQAGGSLRLSCAASGRIFLHYAMGWYRQAPGKERELVAGITKSGSSTYYADSVKGRFTISRDNAKNTVYLQMNSLKPEDTAVYYCAARKIHHHVYGAWPRYGYWGQGTQVTVSS | high polyreactivity |
| QVQLVESGGGLVQAGGSLRLSCAASGRIFLLYLMGWYRQAPGKERELVADITFSGGSTYYADSVKGRFTISRDNEKHTVYLQMNSLKPEDTAVYYCAARLFAAKYRYGYWGQGTQVTVSS | high polyreactivity |
| QVQLVESGGGLVQAGGSLRLSCAASGRIFLPYAMGWYRQAPGKERELVAGISSGGSTKYADSVKGRFTISRDNAKNTVYLQMNSLKPEDTAVYYCNRRFPIYGSRFGYYYWGQGTQVTVSS | high polyreactivity |
| QVQLVESGGGLVQAGGSLRLSCAASGRIFLPYAMGWYRQAPGKERELVAVITGRGGSTYYADAVKGRFTISRDNAKNTVYLQMNSLQPEDTAVYYCAAAYYRGRGYYWGQGTQVSVSS | high polyreactivity |
| QVQLVESGGGLVQAGGSLRLSCAASGRIFLRNAMGWYRQAPGKERELVATITSRGGSTYYADSVKGRFTISRDNAKTTVYLQMNSLKPEDTAVYYCAADPRRYRGFGYVYGGFYYWGQGTQVTVSS | low polyreactivity |
| QVQLVESGGGLVQAGGSLRLSCAASGRIFLRNDMVWYRQAPGKERELVAGISSDGSTYYADSVKGRFTISRDNAKNTVYLQMNSVKREDTAVYDCAAERWGKPTVFQFWRPYDYWGLGTQVTVSS | low polyreactivity |
| QVQLVESGGGLVQAGGSLRLSCAASGRIFLRYAMGGYRAAPGKERELVAAISTRGSSTYYADSVKGRFTNSRDNAKNTVYLQMNSLKPEDTAVYYCNKAWGPRRGVNVAFDYWGQGTQVTVSS | low polyreactivity |
| QVQLVESGGGLVQAGGSLRLSCAASGRIFLVNAKGWYRQAPGKERELVAAITYSGRSTYYAYSVKGRFTISRDNAKNTVYLQMNSLKPEDTSLYYCAALHHTQHDYWGQGTQVTVSS | low polyreactivity |
| QVQLVESGGGLVQAGGSLRLSCAASGRIFLVYAMGWYRQAPGKEREIVASISWSGGSTSYADTVKGLFTISRDNAKNNVSLQMNSLKPEDTAVYYCNAIRRPIFFRGRYYWGQGTQVTVSS | low polyreactivity |
| QVQLVESGGGLVQAGGSLRLSCAASGRIFLWNAMGWYRQAPGKERELVAAISWSGGSTYYADSVKGRFTISRDNAKNTVYLQMNSLKPEDTAVYYCNRLLSLEYGYWGQGTQVTVSS | high polyreactivity |
| QVQLVESGGGLVQAGGSLRLSCAASGRIFLWYAMGWYRQAPGKERELVAAIWRGGSTYYADSVKGRFTISRDNAKNTVYLQMNSLKPEDTAVYYCNAQRAPHWYYLFDYWGQGTQVTVSS | low polyreactivity |
| QVQLVESGGGLVQAGGSLRLSCAASGRIFLYYAMGWYRQAPGKERELVAAISRRGASTYYADSVKGRFTITRDNAKNTVYLQMNSLKPEDTAVYYCGSVPGKSGDYWGQGTQVTVSS | high polyreactivity |
| QVQLVESGGGLVQAGGSLRLSCAASGRIFLYYAMGWYRQAPGKERELVATISSGGSTHYADSVKGRFTISRDNAKNTVYLQMNSMKPEDTAVYYCAAYGYGRGLEPSTTEMDYWGQGTQVTVSS | low polyreactivity |
| QVQLVESGGGLVQAGGSLRLSCAASGRIFMPYAMGWYRQAPGKERELVAAITCTGGSTYYADSVKGRFTISRDNAKNTVYLQMNSPKPEDTAVYYCNARRGYQQHRRDYWGQGTQVTVSS | low polyreactivity |
| QVQLVESGGGLVQAGGSLRLSCAASGRIFNGNAMGWYRQAPGKERELVAAISYSGGATYYADSVKGRFTISRDNAKNTVYLQMNSLKPEDTAVYYCAAAAWDPKGSRYDYWGQGTQVTVSS | low polyreactivity |
| QVQLVESGGGLVQAGGSLRLSCAASGRIFNINAMGWYRQAPGKERELVAAITWRSGSTYYADSVKGRFTISRDNAKNTVYLQMKSLKPEDTAVYYCAADFSQTRRPIRFYYWGQGTQVTVSS | high polyreactivity |
